From publication PMC11869757 (Drug Design, Development and Therapy, 2025)

Molecular target: T1, CD122/IL-2Rβ with a His-tag (Sino Biological, 10696-H08B) (human, UniProt P14784)
T1 sequence: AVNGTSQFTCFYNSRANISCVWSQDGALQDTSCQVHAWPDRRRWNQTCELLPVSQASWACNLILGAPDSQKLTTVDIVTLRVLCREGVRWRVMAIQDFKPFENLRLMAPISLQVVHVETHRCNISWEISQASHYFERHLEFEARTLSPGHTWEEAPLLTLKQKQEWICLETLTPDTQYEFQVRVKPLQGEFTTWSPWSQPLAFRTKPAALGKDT
Test: SPR

Kd: 1710 nM
B1: SHR-1916, PEGylated interleukin-2 analogue (IL-2 N26Q/N29S/F42A/N71Q/L72G/C125A with a 20 kDa PEG at the N-terminus) (ligand)
chain: APTSSSTKKTQLQLEHLLLDLQMILQGISNYKNPKLTRMLTAKFYMPKKATELKHLQCLEEELKPLEEVLQGAQSKNFHLRPRDLISNINVIVLELKGSETTFMCEYADETATIVEFLNRWITFAQSIISTLT
modifications: 20 kDa PEG on the N-terminal amine group
